Reference: article PMC8944080, “Production of indole by Corynebacterium glutamicum microbial cell factories for flavor and fragrance applications” (Microbial Cell Factories, 2022)

How the values were obtained:
[1] = tested on: N[C@@H](Cc1c[nH]c2ccccc12)C(=O)O; experiment: purified protein; details: 100 mM KPi pH 7.8, 30 °C, 0.05 mM pyridoxal phosphate, 1 mM DTT
[2] = tested on: T1, N[C@@H](Cc1c[nH]c2ccccc12)C(=O)O; experiment: purified protein; format: biochemical, Proteus vulgaris; details: 100 mM KPi pH 7.8, 30 °C, 0.05 mM pyridoxal phosphate, 1 mM DTT
T1 construct: full length, N-terminal 6xHis tag, codon-optimised gene, pACYCDuet-1, E. coli BL21(DE3), Ni-NTA; TNAs are homotetramers

Row | Substance | Km [1] | kcat [1] | kcat/Km [1] | Km [2] | kcat [2] | kcat/Km [2]
1 | EcTNA (Escherichia coli K-12) | 140 ± 10 µM | 1.65 s⁻¹ | 11800 M⁻¹ s⁻¹ | – | – | –
2 | PvTNA (Proteus vulgaris) | – | – | – | 30 ± 3 µM | 0.78 ± 0.02 s⁻¹ | 26000 ± 5800 M⁻¹ s⁻¹
